Test results from patent US20160264663A1 (published 2016).

How the values were obtained:
human podocalyxin [1] = target: T1, human podocalyxin (human); assay: FACS, isotype control, hPodo/MDA cells
T1 chain: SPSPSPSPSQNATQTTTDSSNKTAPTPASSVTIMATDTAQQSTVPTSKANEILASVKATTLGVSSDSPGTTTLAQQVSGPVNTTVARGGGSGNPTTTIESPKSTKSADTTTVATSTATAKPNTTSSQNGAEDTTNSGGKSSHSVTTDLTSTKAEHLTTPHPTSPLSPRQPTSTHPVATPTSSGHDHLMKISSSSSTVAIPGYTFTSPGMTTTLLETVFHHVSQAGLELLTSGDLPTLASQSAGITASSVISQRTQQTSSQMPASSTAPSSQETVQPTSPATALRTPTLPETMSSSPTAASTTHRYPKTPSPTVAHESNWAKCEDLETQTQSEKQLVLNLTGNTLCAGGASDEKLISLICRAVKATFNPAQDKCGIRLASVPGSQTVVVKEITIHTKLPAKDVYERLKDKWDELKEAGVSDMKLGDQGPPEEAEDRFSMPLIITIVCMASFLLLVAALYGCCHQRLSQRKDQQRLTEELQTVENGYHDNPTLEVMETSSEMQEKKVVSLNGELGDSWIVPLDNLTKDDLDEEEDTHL

human podocalyxin [2] = target: T1, human podocalyxin; assay: cross competition FACS on MDA-MB-231 cells; unlabeled antibody 25 ug/mL; detected antibody: B-mIgG1 5 ug/mL (control)
human podocalyxin [3] = target: T1, human podocalyxin; assay: cross competition FACS on MDA-MB-231 cells; unlabeled antibody 25 ug/mL; competitor and detected antibody: biotinylated Rb/Hu Podo83 5 ug/mL
human podocalyxin [4] = target: T1, human podocalyxin; assay: cross competition FACS on MDA-MB-231 cells; unlabeled antibody 25 ug/mL; detected antibody: B-Ova 12 5 ug/mL (control)
human podocalyxin [5] = target: T1, human podocalyxin; assay: cross competition FACS on MDA-MB-231 cells; unlabeled antibody 25 ug/mL; detected antibody: B-Herceptin 5 ug/mL (control, its target on the cells not given)
human podocalyxin [6] = target: T1, human podocalyxin; assay: cross competition FACS on MDA-MB-231 cells; unlabeled antibody 25 ug/mL; competitor and detected antibody: B-3G2.2 5 ug/mL
human podocalyxin [7] = target: T1, human podocalyxin; assay: flow cytometry, isotype control, OVCAR10 cells
human podocalyxin [8] = target: T1, human podocalyxin; assay: flow cytometry, isotype control, HUVEC cells
human podocalyxin [9] = target: T1, human podocalyxin; assay: flow cytometry, isotype control, 293 HEK cells
human podocalyxin [10] = target: T1, human podocalyxin; assay: flow cytometry, isotype control, T47-D cells
human podocalyxin [11] = target: T1, human podocalyxin; assay: flow cytometry, isotype control, MCF7 cells
human podocalyxin [12] = target: T1, human podocalyxin; assay: flow cytometry, isotype control, OVCAR3 cells
human podocalyxin [13] = target: T1, human podocalyxin; assay: flow cytometry, isotype control, CaOV3 cells
human podocalyxin [14] = target: T1, human podocalyxin; assay: flow cytometry, isotype control, MDA-MB-231 cells
human podocalyxin [15] = target: T1, human podocalyxin; assay: flow cytometry, isotype control, SKOV3 cells
human podocalyxin [16] = target: T1, human podocalyxin; assay: flow cytometry, isotype control, A172 cells
human podocalyxin [17] = target: T1, human podocalyxin; assay: flow cytometry, control antibody, HUVEC cells
human podocalyxin [18] = target: T1, human podocalyxin; assay: flow cytometry, control antibody, 293 HEK cells
human podocalyxin [19] = target: T1, human podocalyxin; assay: flow cytometry, control antibody, CaOV3 cells
human podocalyxin [20] = target: T1, human podocalyxin; assay: flow cytometry, control antibody, MDA-MB-231 cells
human podocalyxin [21] = target: T1, human podocalyxin; assay: flow cytometry, control antibody, T47-D cells
human podocalyxin [22] = target: T1, human podocalyxin; assay: flow cytometry, control antibody, A172 cells
human podocalyxin [23] = target: T1, human podocalyxin; assay: flow cytometry, control antibody, OVCAR3 cells
human podocalyxin [24] = target: T1, human podocalyxin; assay: flow cytometry, control antibody, MCF7 cells
human podocalyxin [25] = target: T1, human podocalyxin; assay: flow cytometry, control antibody, OVCAR10 cells

hIgG2 (antibody)
FACS signal (name not given) (human podocalyxin [1]): 533

3D3 (Santa Cruz Biotechnology sc23904) (antibody)
FACS signal (name not given) (human podocalyxin [2]): 419
FACS signal (name not given) (human podocalyxin [3]): 135000
FACS signal (name not given) (human podocalyxin [4]): 450
FACS signal (name not given) (human podocalyxin [5]): 4820
FACS signal (name not given) (human podocalyxin [6]): 26400

MsIgG2a (antibody)
Live cell GeoMean FL (geometric mean fluorescence units) (human podocalyxin [7]): 618
Live cell GeoMean FL (geometric mean fluorescence units) (human podocalyxin [8]): 484
Live cell GeoMean FL (geometric mean fluorescence units) (human podocalyxin [9]): 556
Live cell GeoMean FL (geometric mean fluorescence units) (human podocalyxin [10]): 787
Live cell GeoMean FL (geometric mean fluorescence units) (human podocalyxin [11]): 1130
Live cell GeoMean FL (geometric mean fluorescence units) (human podocalyxin [12]): 708
Live cell GeoMean FL (geometric mean fluorescence units) (human podocalyxin [13]): 892
Live cell GeoMean FL (geometric mean fluorescence units) (human podocalyxin [14]): 478
Live cell GeoMean FL (geometric mean fluorescence units) (human podocalyxin [15]): 485
Live cell GeoMean FL (geometric mean fluorescence units) (human podocalyxin [16]): 797

mIgG1 (antibody)
FACS signal (name not given) (human podocalyxin [2]): 414
FACS signal (name not given) (human podocalyxin [3]): 124000
FACS signal (name not given) (human podocalyxin [4]): 458
FACS signal (name not given) (human podocalyxin [5]): 4810
FACS signal (name not given) (human podocalyxin [6]): 26600

Control Rb/Hu IgG1 (antibody)
Live cell GeoMean FL (geometric mean fluorescence units) (human podocalyxin [17]): 489
Live cell GeoMean FL (geometric mean fluorescence units) (human podocalyxin [18]): 446
Live cell GeoMean FL (geometric mean fluorescence units) (human podocalyxin [19]): 767
Live cell GeoMean FL (geometric mean fluorescence units) (human podocalyxin [20]): 477
Live cell GeoMean FL (geometric mean fluorescence units) (human podocalyxin [21]): 667
Live cell GeoMean FL (geometric mean fluorescence units) (human podocalyxin [22]): 644
Live cell GeoMean FL (geometric mean fluorescence units) (human podocalyxin [23]): 629
Live cell GeoMean FL (geometric mean fluorescence units) (human podocalyxin [24]): 657
Live cell GeoMean FL (geometric mean fluorescence units) (human podocalyxin [25]): 653

hIgG1 (antibody)
FACS signal (name not given) (human podocalyxin [1]): 544
